From paper PMC3376891 (Cell, 2012)

Legend:
[1] = salt-free buffer; ref Bowie and Sauer, 1989; cited from earlier work
[2] = Far-UV CD spectroscopy of peptides; format: physicochemical; details: aqueous solution / buffer (Figure S2D)

Substance | Unfolding behavior of Arc upon dilution [1] | Secondary structure by far-UV CD [2]
Arc: 55 aa Arc repressor, a client protein of both chaperones (MKGMSKMPQFNLRWPREVLDLVRKVAEENGRSVNSEIYQRVMESFKKEGRIGA; UniProt P03050 1-53, looked up) | rapidly dissociate and slowly unfold upon dilution into salt-free buffer without forming aggregates | 
neuropeptide Y [Pep1] |  | α helix
